Measurements from US20260193347A1 (UNIVERSITY OF FLORIDA RESEARCH FOUNDATION, published 2026).

Legend:
[1] = target: T1, mGlyR (GPR158) co-expressed in HEK293FT cells in the BRET-based GAP assay (human, UniProt Q5T848 24-1215); assay: cell-based or functional assay
T1 sequence: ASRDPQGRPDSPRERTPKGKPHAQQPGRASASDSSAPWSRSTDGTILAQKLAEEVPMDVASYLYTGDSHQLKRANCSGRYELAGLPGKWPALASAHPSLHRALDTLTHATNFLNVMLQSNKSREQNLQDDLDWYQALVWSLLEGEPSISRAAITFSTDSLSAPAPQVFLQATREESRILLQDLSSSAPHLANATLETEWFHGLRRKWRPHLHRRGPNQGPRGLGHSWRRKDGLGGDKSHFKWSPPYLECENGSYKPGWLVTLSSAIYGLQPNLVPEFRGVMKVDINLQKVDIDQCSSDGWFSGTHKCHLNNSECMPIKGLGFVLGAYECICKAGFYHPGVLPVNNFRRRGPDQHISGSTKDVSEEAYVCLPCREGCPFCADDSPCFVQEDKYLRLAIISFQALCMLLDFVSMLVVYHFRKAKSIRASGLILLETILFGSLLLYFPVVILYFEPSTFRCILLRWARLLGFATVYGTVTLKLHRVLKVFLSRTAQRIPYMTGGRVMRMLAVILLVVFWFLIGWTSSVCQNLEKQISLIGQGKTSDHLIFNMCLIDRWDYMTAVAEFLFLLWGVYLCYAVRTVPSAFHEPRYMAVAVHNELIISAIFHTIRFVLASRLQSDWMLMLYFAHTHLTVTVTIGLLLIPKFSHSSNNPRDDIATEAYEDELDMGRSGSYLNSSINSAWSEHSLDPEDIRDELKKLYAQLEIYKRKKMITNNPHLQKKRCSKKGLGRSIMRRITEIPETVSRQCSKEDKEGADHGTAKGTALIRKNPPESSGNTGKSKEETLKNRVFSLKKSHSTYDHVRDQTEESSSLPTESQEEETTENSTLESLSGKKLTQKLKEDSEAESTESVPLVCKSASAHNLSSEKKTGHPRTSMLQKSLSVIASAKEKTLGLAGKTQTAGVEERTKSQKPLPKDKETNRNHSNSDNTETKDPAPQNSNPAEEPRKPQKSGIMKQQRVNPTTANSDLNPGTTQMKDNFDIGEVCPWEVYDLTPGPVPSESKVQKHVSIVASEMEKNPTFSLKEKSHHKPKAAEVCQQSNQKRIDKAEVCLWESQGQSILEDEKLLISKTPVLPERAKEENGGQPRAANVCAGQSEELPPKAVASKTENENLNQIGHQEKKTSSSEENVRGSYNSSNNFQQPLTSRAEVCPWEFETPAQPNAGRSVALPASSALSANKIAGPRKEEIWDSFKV

[2] = target: T2, Venus-tagged full length GPR158 (mGlyR) transiently expressed on HEK293 cells (human, UniProt Q5T848 24-1215); assay: flow cytometry titration on GPR158-transfected HEK293 cells
T2 construct: This is the flow cytometry target; not shown: Venus tag
T2 sequence: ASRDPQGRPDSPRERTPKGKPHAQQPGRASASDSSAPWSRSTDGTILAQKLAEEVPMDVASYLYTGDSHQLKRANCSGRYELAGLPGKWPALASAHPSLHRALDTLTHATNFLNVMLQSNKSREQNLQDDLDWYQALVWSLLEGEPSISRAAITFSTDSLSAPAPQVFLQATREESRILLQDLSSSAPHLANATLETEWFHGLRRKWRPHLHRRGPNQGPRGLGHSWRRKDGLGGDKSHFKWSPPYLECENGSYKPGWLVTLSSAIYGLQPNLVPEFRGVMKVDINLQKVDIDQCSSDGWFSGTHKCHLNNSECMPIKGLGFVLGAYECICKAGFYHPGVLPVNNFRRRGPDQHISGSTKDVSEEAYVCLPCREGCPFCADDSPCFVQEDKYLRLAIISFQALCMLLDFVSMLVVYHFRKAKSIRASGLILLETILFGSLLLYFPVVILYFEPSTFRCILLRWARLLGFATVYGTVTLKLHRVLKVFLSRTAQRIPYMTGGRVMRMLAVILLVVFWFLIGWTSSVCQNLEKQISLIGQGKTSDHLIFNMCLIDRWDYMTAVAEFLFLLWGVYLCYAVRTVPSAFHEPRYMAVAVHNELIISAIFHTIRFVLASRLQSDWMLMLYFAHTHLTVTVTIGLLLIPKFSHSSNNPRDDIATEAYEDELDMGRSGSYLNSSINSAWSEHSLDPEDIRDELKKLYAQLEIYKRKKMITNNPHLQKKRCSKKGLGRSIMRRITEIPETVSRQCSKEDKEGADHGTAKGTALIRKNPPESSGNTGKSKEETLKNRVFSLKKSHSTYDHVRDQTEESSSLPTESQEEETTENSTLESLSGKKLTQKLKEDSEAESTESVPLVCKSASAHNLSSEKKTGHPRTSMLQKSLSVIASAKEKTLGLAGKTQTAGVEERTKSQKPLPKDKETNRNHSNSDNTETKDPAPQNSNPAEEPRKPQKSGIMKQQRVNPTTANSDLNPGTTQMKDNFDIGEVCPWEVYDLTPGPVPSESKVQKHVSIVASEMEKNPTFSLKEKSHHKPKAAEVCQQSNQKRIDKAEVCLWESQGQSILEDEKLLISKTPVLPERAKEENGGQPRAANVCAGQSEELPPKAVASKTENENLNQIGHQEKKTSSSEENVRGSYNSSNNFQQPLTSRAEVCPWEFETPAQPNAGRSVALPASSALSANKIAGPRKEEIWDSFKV

[3] = target: T2, Venus-tagged full length GPR158 (mGlyR) …; assay: flow cytometry, % of positive cells against Log [Nanobody] (M), cells expressing mGlyR, n=3, detection with anti-myc-APC
Experimental: Error bars are SEM values (n=3 independent experiments).
HEK293FT cells were cultured in 6 well plates at the density of 1.10⁶ per well and transfected with 2 μg of cDNA of mGlyR or empty pcDNA3.1+ in control experiments, using Metafectene Pro. 48 h after transfection, cells were mechanically detached pipetting up-down, washed in PBS supplemented with 0.1% BSA, counted and incubated in PBS-0.1% BSA for 1 h at 4° C. under rotation. […] After 3 washes, cells were analyzed in LSR-II BD flow cytometer. Gating strategy to sort individual cells to debris and doublets was used.

B1: llama nanobody Nb20 (Nanobody-20), purified recombinant, myc- and His-tagged (VHH, not shown: small tags and cut ends)
VHH: EVQLQESGGGLVQAGGSLRLSCAASGSIGNIYIMGWYRQTPGPQRELVATIRTVRWTKYEDYADSVKGRFTISDDDAKNTVYLQMNSLKPEDTAVYYCNYKDYNAPSDGYWGQGTQVTVSS
notes: Expressed in E. coli BL21 DE3 from pET28a and purified on Ni-IDA; Detected by an anti-myc-APC antibody in flow cytometry; The two passages disagree on where the tags sit; also called clone number 20
IC50, dose-response of changes in GAP activity (BRET-based GAP assay) [1]: ~6 nM | IC50, inhibition of GAP activity of GPR158 via RGS7/Gβ5 (BRET-based GAP assay) [1]: 5.77 nM | EC50 [2]: ~10 nM | EC50 [3]: 9.9 nM
